The subject of one series is HUVEC migration. Description: HUVEC migration (wound healing) assay. It counts as cell-based, human. As to conditions: % of MOCK. The method, then:
(§1) Genetic mutation introduced during antibody engineering induces unpredicted defects, resulting in deterioration in antibody functions. In order to isolate antibodies for suppressing clec14a-mediated angiogenesis, tube formation and endothelial cell migration assay using human umbilical vein endothelial cells (HUVECs) were conducted in the presence or absence of clone 1 IgG and deglyco C1-C4 IgGs. Among the four types of deglyco IgGs, deglyco C1 IgG was selected as a candidate antibody. […] In addition, it can be seen that deglyco C1 IgG includes desired alterations (N32R/N33C/S34G) in the amino acid sequence in light chain CDR1.
(§2) In order to compare in vitro angiogenesis suppression effect between deglyco C1 IgG and bevacizumab, tube formation and migration assay were conducted in the presence or absence of parent antibody IgG, deglyco C1 IgG or bevacizumab as a positive control group.

Series [1] relates to VEGF-dependent microvessel formation. Briefly: mouse Matrigel plug assay, VEGF-dependent microvessel formation. It counts as in vivo. The procedure: In order to observe in vivo efficacies of deglyco C1 IgG on VEGF-dependent angiogenesis, a mouse Matrigel model was established, hemoglobin level was measured as a marker of microvessel formation, and inhibitory activities against microvessel formation of deglyco C1 IgG and bevacizumab were compared by a mouse Matrigel plug assay.

The test system of series [2] is binding of clec14a-CTLD to HUVECs. Description: cell ELISA: hclec14a-CTLD-Fc-HRP binding to HUVECs. Type of series: cell-based, human. As to conditions: increasing antibody concentration. The method, then:
In order to analyze action mechanisms of deglyco C1 IgG at a molecule-scale, specifically, in angiogenesis, HUVECs were treated with hclec14a-CTLD-Fc-HRP (HRP-labeled hclec14a-CTLD-Fc) in the absence or presence of an increasing concentration of parent antibody IgG or deglyco C1 IgG.
For orientation: An ELISA detects its analyte on a solid surface through an enzyme-linked reagent.

The test system of a further series is SNU182 cells. Description: tumor cell-derived Matrigel plug angiogenesis assay. It counts as in vivo, mouse. The conditions noted are these: single dose of 10 mg/kg, 2 weeks, nude mice. The method, then:
(§3) In order to investigate in vivo effects of deglyco C1 IgG on tumor angiogenesis, tumor cell-derived Matrigel plug angiogenesis assay was conducted on thymus-removed nude mice. SNU182- and CFPAC-1 cells and U87 human glioma cells containing Matrigel were transplanted into thymus-removed nude mice in the presence of deglyco C1 IgG and bevacizumab with a single dose of 10 mg/kg or in the absence thereof. 2 weeks later, the Matrigel plug was removed and the total hemoglobulin content of each group was measured with an ELISA reader.

The next series has as its system CFPAC-1 cells. Described as above. The conditions noted are these: single dose of 10 mg/kg, 2 weeks, nude mice. Type of series: in vivo, mouse. The procedure:
as §3

The test system of another series is U87 human glioma cells. The description is as above. Type of series: in vivo, mouse. As to conditions: single dose of 10 mg/kg, 2 weeks, nude mice. The method, then: as §3
For another series, the system named is HCT116/Beva cells. Briefly: Matrigel plug angiogenesis assay, CD31 microvessel density. It counts as in vivo. As to conditions: single dose of 5 mg/kg, 14 days. The method, then: (§4) Matrigel plug angiogenesis assay was conducted in the presence of deglyco C1 IgG or bevacizumab with a single dose of 5 mg/kg or the absence thereof using HCT116 human colorectal cancer cells and bevacizumab-applied HCT116 human colorectal cancer cells (HCT116 and HCT116/Beva). 14 days later, the Matrigel plug was removed, and immunohistochemistry was conducted on CD31 and microvascular markers. A microvessel density was measured by quantifying CD31 positive per field in an image each obtained by a confocal microscope.

Series [3] has as its system HCT116 human colorectal cancer cells. The description is as above. It counts as in vivo. The conditions noted are these: single dose of 5 mg/kg, 14 days. The procedure: as §4
In another series the test system is HUVEC tube formation. Briefly: HUVEC tube formation assay. It counts as cell-based, human. The conditions noted are these: branches as % of MOCK. The method, then:
as §1, §2
In order to investigate in vitro effects of deglyco C1 IgG on VEGF-dependent angiogenesis, HUVECs were treated with VEGF in the presence or absence of deglyco C1 IgG, and then HUVEC tube formation assay was conducted. 150 μl of Matrigel was added to a 48-well plate and incubated at 37° C. for 30 minutes. HUVEC (10^5) cultured in EGM-2 were collected, seeded on the Matrigel-coated plate and incubated at 37° C. for 18 hours in the presence or absence of clone 1 IgG, parent antibody IgG, deglycosylated clec14a-CTLD IgG or bevacizumab. HUVECs cultured in VEGF-containing EBM (endothelial cell basal medium) were seeded to the Matrigel-coated plate and incubated at 37° C. for 18 hours in the presence or absence of deglyco C1 IgG (20 μg ml^−1).

Series [4] has as its system HUVECs. Description: HUVEC morphology by immunocytochemistry. Type of series: cell-based, human. The method, then:
(§5) In addition, the morphology of HUVEC was evaluated in the presence or absence of deglyco C1 IgG using immunocytochemistry. […] In order to evaluate effects of deglyco C1 IgG on the activity of endothelial cells, which is an initial inflammatory response to a harmful stimulus, HUVECs were treated with deglyco C1 IgG, and expression of an endothelial cell activity marker including VCAM-1 (vascular cell adhesion molecule-1) and ICAM-1 (intercellular cell adhesion molecule-1) was measured to monitor HUVEC activity. Human tumor necrosis factor-alpha (hTNFα) was used as a positive control group for endothelial cell activity.
In order to investigate correlations between tumor angiogenesis and clec14a, first, xenograft tumor models including SNU182 human liver cell or CFPAC-1 human pancreatic cancer cell carcinomas were established, and immunohistochemistry was conducted on commercially available antibodies of clec14a and CD31, which is a well-known endothelial marker protein. Immunohistochemistry was conducted as follows. HUVECs (5×10^4) grown on a 0.1% (w/v) gelatin-coated glass cover slip were incubated in the presence or absence of deglyco C1 IgG for 24 hours at 37° C. […]

The next series relates to HUVEC activity. Briefly: endothelial cell activation (VCAM-1, ICAM-1 expression). It counts as cell-based, human. The procedure:
as §5

For series [5], the system named is VEGF-dependent blood vessel growth in rat aorta. Description: ex vivo rat aortic ring assay. The conditions noted are these: cultured in combination with VEGF. The procedure:
In order to further investigate effects of deglyco C1 IgG on VEGF-dependent angiogenesis, ex vivo rat aortic ring assay was conducted in the presence or absence of deglyco C1 IgG and bevacizumab. Blood vessels were almost not grown in the rat aorta in endothelial basal medium (EBM), whereas most blood vessels were grown in the rat aorta under VEGF expression conditions.

Series [6] relates to HUVECs. Briefly: HUVEC viability (cell counting Kit-8). Type of series: cell-based, human. As to conditions: 2 days. The method, then:
In order to evaluate effects of deglyco C1 IgG on toxicity of endothelial cells, after treatment with deglyco C1 IgG, viability of HUVECs was measured. Viability was measured in accordance with the manufacturer's manual through cell counting Kit-8 (#CK04-13, Dojindo Laboratories, Kumamoto, Japan).

B1: deglyco C1 IgG: deglycosylated clone 1 IgG; light chain CDR1 TGSSSNIGRCGVT (SEQ ID NO: 2), N32R/N33C/S34G (antibody, V domains shown)
VH: EVQLVESGGGLVQPGGSLRLSCAVSGFTFSGYDMSWIRQAPGKGLEWVAGIYPDGGNTYYADSVKGRFTISRDDSKNTFYLQMNSLRAEDTAVYYCARGATWWVLGPFDYWGQGTLVTVSS
VL: DIQLTQSPSSLSASVGDRVTITCTGSSSNIGRCGVTWYQQKPGKAPKLLIYADSHRPSGVPSRFSGSGSGTDFTLTISSLQPEDFATYYCGAWDDSLSGYVFGQGTKVEIKR
Turning to B1, the “inhibitory activity against HUVEC migration” value with HUVEC migration is listed as “most excellent inhibitory activity”; with HUVEC migration (listed as Deglyco C1 IgG) it was “inhibited migration to a similar extent to bevacizumab”. For the same molecule, the “hemoglobin content (microvessel formation)” value in series [1] is reported as “significantly reduced a hemoglobin content”. Also, in series [2], the “suppression of binding of clec14a-CTLD to HUVECs” value is reported as “significantly suppressed”. In the series on SNU182 cells, the “hemoglobin content, SNU182-derived” value is listed as “significantly reduced hemoglobin”. For the same molecule, the “hemoglobin content, CFPAC-1-derived” value in the series on CFPAC-1 cells was “significantly reduced hemoglobin”. Further, the “hemoglobin content, U87-derived” value in the series on U87 human glioma cells was “significantly reduced hemoglobin”. For the same molecule, the “microvessel formation (CD31 positive per field), HCT116/Beva” value in the series with HCT116/Beva cells is on record as “significantly suppressed”. Further, in series [3], the “microvessel formation (CD31 positive per field), HCT116” value was “significantly reduced microvessel formation ability”. Also, the figures for the “inhibitory activity against HUVEC tube formation” value in the series with HUVEC tube formation and with HUVEC tube formation (listed as Deglyco C1 IgG) were “most excellent inhibitory activity” and “significantly suppressed”, respectively. Further, in the series on HUVECs [4], the “morphology of HUVECs” value is reported as “did not change the morphology”. Further, the “HUVEC activity (VCAM-1, ICAM-1 expression)” value in the series on HUVEC activity is recorded as “almost no impact”. The “number of blood vessels grown in the rat aorta” value in series [5] is listed as “reduced the number of blood vessels grown in the rat aorta”. Also, in the series on HUVECs [6], the “viability of HUVECs” value was “did not exhibit cytotoxic effects”.

These data come from patent US20190309074A1, “DEGLYCOSYLATED ANTIBODY SPECIFICALLY BINDING TO CLEC14A AND USES THEREOF” (WOORI TECHNOLOGIES CORPORATION, priority 2016, published 2019).
